Laboratory results published in US20210403580A1 (AJOU UNIVERSITY INDUSTRY ACADEMIC COOPERATION FOUNDATION, published 2021).

Biological target: T1, hIL-4Rα (Sino Biological) (human, UniProt P24394 26-232)
T1 construct: Bought protein immobilised on the CM5 chip for SPR
Assay: SPR (Biacore 2000), hIL-4Rα (Sino Biological) immobilised to about 500 RU on CM5, IgG as analyte
Experimental: Specifically, hIL-4Rα (Sino Biological) was diluted to a concentration of […] in a 10 mM NaAc buffer (pH 4.0) and immobilized to about 500 response units (RU) on a CM5 sensor chip (GE Healthcare). […] After binding and dissociation analysis, regeneration of the CM5 chip was carried out by flushing the CM5 chip with a buffer solution (10 mM Glycine, pH 2.0) at a flow rate of 30 μl/min for 90 seconds. The sensorgram, obtained by binding for 90 seconds and dissociation for 900 seconds, was normalized and the value of a blank cell was subtracted therefrom to calculate the affinity.
In this manner, affinity may vary depending on the level of antigen immobilization.

B1: 4R25 (antibody, V domains shown)
VH: EVQLLESGGGLVQPGGSLRLSCAASGFTFSNYAMSWVRQAPGKGLEWVSWISPNSGNIYYADSVKGRFTISRDNSKNTLYLQMNSLRAEDTAVYYCARRPLSAAWSHSSYYNAMDVWGQGTLVTVSS
VL: QSVLTQPPSAPGTPGQRVTISCTGSSSNIGSNSVNWYQQLPGTAPKLLIYDDSHRPSGVPDRFSGSKSGTSASLAISGLRSEDEADYYCDAWDSSLSAYVFGGGTKLTVL
Kd: 1.21 nM
koff: 0.000177 s⁻¹
kon: 147000 M⁻¹ s⁻¹
